From PMC9636267 (2022)
Read-outs that look alike come from different tables or passages of the source.

T1: HCoV-229E S ectodomain (17–1115 aa), 229E S trimer (human coronavirus 229E, UniProt P15423 17-1115)
T1 chain: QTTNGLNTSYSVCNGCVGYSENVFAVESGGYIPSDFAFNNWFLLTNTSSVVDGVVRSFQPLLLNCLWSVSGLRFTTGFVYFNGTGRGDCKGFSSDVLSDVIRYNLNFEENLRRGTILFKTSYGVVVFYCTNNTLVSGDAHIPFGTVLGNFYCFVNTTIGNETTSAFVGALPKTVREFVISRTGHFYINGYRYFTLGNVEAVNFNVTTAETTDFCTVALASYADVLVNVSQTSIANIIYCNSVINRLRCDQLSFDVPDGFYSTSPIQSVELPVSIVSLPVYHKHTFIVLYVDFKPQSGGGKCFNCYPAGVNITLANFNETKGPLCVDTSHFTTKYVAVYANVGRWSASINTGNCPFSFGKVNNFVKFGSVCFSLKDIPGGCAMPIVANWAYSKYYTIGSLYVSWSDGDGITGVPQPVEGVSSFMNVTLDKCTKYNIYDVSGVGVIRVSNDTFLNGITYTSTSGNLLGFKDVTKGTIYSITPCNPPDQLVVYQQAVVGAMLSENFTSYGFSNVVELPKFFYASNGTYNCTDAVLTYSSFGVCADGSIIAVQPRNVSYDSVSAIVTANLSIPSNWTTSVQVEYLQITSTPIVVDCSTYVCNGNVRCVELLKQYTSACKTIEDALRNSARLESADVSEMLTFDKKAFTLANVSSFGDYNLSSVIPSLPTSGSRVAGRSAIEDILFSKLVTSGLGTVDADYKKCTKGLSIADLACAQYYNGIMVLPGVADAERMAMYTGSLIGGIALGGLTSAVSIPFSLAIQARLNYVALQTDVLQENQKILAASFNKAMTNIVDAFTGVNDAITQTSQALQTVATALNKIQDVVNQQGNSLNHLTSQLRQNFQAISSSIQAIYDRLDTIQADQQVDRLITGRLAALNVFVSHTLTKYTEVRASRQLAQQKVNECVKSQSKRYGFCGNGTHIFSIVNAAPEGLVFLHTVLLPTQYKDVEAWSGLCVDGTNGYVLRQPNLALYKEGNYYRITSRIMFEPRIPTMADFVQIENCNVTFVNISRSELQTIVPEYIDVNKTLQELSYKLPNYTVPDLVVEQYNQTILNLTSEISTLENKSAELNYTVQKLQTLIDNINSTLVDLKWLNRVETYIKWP

T2: HCoV-NL63 S ectodomain (16–1291 aa) (human coronavirus NL63, UniProt Q6Q1S2 16-1291)
T2 chain: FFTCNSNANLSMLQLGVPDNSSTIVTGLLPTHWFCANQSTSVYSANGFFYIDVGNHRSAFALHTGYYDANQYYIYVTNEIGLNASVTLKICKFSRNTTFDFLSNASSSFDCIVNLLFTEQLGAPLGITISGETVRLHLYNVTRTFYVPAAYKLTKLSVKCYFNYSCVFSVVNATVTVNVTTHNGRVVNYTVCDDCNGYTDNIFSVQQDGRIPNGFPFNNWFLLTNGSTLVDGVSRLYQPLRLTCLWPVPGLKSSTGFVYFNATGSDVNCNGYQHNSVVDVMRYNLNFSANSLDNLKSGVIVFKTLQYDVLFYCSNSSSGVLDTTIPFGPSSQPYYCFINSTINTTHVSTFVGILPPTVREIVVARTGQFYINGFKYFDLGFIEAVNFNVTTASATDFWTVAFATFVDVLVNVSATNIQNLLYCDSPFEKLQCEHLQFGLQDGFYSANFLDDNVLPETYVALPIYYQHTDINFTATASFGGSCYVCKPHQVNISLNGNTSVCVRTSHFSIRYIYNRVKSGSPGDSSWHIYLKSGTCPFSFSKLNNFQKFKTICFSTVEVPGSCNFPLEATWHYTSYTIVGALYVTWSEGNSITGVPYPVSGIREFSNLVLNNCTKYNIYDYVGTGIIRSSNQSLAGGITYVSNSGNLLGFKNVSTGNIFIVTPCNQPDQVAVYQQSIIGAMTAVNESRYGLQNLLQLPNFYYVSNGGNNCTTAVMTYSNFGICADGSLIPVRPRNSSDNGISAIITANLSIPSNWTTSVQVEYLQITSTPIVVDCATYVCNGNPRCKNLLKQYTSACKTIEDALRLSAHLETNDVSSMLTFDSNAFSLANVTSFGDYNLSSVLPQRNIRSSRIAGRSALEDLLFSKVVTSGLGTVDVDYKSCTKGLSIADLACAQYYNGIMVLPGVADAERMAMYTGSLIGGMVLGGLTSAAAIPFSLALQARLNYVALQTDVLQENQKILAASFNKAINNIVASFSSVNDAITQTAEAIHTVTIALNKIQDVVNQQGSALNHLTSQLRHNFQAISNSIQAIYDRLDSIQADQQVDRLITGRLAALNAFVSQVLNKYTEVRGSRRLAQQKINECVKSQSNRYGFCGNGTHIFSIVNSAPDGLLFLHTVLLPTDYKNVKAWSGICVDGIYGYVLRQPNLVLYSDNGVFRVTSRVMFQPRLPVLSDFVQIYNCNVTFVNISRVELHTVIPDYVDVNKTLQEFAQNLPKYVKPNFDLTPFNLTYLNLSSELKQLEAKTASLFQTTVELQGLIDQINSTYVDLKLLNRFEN

T3: HCoV-229E S1 subunit (17–560 aa) (human coronavirus 229E, UniProt P15423 17-560)
T3 chain: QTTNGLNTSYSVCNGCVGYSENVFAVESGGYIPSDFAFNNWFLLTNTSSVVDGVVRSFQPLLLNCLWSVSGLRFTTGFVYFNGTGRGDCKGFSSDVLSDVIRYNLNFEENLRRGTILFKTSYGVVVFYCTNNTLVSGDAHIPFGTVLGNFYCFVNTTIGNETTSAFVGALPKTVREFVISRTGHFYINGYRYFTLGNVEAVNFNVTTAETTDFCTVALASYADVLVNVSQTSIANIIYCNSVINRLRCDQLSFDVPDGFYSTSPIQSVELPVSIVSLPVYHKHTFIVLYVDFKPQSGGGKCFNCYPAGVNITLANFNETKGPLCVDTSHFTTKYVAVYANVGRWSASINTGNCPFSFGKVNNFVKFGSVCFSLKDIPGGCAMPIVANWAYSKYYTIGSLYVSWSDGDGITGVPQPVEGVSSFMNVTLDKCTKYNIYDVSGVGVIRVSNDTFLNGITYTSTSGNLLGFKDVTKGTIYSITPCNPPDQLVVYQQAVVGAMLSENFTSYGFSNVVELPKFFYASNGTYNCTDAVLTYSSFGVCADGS

T4: HCoV-229E NTD (17–265 aa) (human coronavirus 229E, UniProt P15423 17-265)
T4 chain: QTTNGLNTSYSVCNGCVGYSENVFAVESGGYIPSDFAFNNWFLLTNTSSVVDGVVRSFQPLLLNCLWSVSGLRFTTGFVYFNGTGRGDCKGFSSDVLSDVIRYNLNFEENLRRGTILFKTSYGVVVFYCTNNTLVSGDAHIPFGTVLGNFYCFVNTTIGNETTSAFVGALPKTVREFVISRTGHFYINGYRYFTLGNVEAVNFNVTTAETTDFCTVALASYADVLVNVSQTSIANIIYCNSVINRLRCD

T5: HCoV-229E S2 subunit (575–1115 aa) (human coronavirus 229E, UniProt P15423 575-1115)
T5 chain: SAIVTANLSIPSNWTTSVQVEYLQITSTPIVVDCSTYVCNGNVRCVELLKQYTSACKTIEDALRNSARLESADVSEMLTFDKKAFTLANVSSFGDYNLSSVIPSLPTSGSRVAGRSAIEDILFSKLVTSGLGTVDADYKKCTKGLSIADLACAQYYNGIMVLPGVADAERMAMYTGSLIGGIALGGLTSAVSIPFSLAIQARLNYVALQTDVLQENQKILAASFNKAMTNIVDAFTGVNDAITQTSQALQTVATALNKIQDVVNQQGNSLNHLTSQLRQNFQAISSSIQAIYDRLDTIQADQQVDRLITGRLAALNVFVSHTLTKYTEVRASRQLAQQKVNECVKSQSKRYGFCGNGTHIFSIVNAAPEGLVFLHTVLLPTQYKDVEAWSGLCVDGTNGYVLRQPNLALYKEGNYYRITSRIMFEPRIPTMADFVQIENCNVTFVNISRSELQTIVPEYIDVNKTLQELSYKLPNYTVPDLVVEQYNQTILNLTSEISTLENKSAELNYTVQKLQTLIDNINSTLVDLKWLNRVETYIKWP

B1: Fab F07 (Fab, V domains shown)
VH: EVQLVESGGGLVQPGGSLRLSCAASGFNISYYSIHWVRQAPGKGLEWVASIYPYYGYTSYADSVKGRFTISADTSKNTAYLQMNSLRAEDTAVYYCARSSGYYHYPYSHSGLDYWGQGTLVTVSS
VL: DIQMTQSPSSLSASVGDRVTITCRASQSVSSAVAWYQQKPGKAPKLLIYSASSLYSGVPSRFSGSRSGTDFTLTISSLQPEDFATYYCQQSYYWGGPITFGQGTKVEIK
B2: Fab D12 (Fab, V domains shown)
VH: EVQLVESGGGLVQPGGSLRLSCAASGFNLSSYSMHWVRQAPGKGLEWVAYISPYYSYTSYADSVKGRFTISADTSKNTAYLQMNSLRAEDTAVYYCARVWYHSYPGWVPWGSWAFDYWGQGTLVTVSS
VL: DIQMTQSPSSLSASVGDRVTITCRASQSVSSAVAWYQQKPGKAPKLLIYSASSLYSGVPSRFSGSRSGTDFTLTISSLQPEDFATYYCQQAYYSPITFGQGTKVEIK
B3: Fab F12 (Fab, V domains shown)
VH: EVQLVESGGGLVQPGGSLRLSCAASGFNLYYYYIHWVRQAPGKGLEWVASISPYSGYTSYADSVKGRFTISADTSKNTAYLQMNSLRAEDTAVYYCARAFSSYYSHSVGLDYWGQGTLVTVSS
VL: DIQMTQSPSSLSASVGDRVTITCRASQSVSSAVAWYQQKPGKAPKLLIYSASSLYSGVPSRFSGSRSGTDFTLTISSLQPEDFATYYCQQHSWGGLITFGQGTKVEIK

Columns and labels:
Assay in all cases: SPR
[1] = molecular target: T1, HCoV-229E S ectodomain (17–1115 aa), …
[2] = molecular target: T2, HCoV-NL63 S ectodomain (16–1291 aa)
[3] = molecular target: T2, HCoV-NL63 S ectodomain (16–1291 aa)
[4] = molecular target: T3, HCoV-229E S1 subunit (17–560 aa)
[5] = molecular target: T4, HCoV-229E NTD (17–265 aa)
[6] = molecular target: T1, HCoV-229E S ectodomain (17–1115 aa), …
[7] = molecular target: T3, HCoV-229E S1 subunit (17–560 aa)
[8] = molecular target: T4, HCoV-229E NTD (17–265 aa)
[9] = molecular target: T5, HCoV-229E S2 subunit (575–1115 aa)

| Binder | koff [1] [s⁻¹] | Kd [2] [nM] | Kd [3] [nM] | koff [4] [s⁻¹] | koff [5] [s⁻¹] | Kd [6] [nM] | Kd [7] [nM] | Kd [8] [nM] | koff [9] [s⁻¹] |
| --- | --- | --- | --- | --- | --- | --- | --- | --- | --- |
| B1 | 0.00035 | 6400 | 3900 | 0.00036 | 0.00053 | 1.4 | 0.7 | 3.1 | – |
| B2 | 0.0018 | 8400 | 3800 | 0.00086 | 0.00043 | 3.9 | 1.1 | 3.2 | – |
| B3 | 0.00091 | – | – | – | – | – | – | – | 2.7e-05 |
